Experimental data: patent US20210338733A1 (University of Pennsylvania, published 2021)

Target: T1, TnMUC1 (aberrantly glycosylated Tn glycoform of MUC1) as expressed by tumor cells (human, UniProt P15941 24-1255, Tn (GalNAca1-O-Ser/Thr) glycans; sites not stated)
T1 construct: whole, on cells; One molecule is used for all TnMUC1-positive target cells; In the IHC of breast tumor tissue the staining was cytoplasmic and/or membranous; also called TnMUC1 antigen; TnMUC1+ target cells (Jurkat E6-1, Hs766T, MCF7, breast cancer cell lines and tissue)
T1 sequence (P15941 24-1255): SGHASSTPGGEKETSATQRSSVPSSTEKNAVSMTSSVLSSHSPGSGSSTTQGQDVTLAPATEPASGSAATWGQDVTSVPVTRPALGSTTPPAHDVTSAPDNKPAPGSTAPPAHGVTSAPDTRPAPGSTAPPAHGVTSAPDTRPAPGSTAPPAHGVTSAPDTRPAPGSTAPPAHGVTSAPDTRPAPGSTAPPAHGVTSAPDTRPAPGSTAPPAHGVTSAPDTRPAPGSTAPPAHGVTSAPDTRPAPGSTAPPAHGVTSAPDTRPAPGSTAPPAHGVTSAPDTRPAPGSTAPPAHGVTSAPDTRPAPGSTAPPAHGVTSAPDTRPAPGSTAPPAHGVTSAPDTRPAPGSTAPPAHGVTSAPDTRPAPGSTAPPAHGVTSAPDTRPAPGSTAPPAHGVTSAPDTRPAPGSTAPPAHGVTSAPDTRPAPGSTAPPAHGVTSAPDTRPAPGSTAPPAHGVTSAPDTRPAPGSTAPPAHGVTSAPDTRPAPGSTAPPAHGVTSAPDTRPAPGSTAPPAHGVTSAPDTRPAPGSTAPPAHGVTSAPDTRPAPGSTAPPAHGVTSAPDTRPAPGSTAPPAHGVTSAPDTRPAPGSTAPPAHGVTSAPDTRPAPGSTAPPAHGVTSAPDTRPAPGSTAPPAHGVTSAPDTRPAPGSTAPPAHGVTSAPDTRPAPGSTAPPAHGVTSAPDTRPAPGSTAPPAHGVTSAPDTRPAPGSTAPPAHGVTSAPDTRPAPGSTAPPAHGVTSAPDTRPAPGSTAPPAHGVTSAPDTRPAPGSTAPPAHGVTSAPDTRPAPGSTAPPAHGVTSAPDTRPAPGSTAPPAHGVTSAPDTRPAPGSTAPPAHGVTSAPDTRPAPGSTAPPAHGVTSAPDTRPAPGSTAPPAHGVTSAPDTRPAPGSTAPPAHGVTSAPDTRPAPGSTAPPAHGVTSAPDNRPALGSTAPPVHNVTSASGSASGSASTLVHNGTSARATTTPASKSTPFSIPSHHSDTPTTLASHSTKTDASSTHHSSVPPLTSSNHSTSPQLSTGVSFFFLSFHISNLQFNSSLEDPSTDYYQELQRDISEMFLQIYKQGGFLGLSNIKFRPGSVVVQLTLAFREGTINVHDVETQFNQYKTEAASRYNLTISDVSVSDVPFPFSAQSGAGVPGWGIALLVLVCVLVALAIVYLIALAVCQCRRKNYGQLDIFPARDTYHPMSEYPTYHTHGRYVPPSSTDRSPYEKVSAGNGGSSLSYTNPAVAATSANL
Assay: immunohistochemistry on breast cancer tissue

B1: Anti-TnMUC1 murine monoclonal antibody clone 5E5 (antibody, V domains shown)
VH: QVQLQQSDAELVKPGSSVKISCKASGYTFTDHAIHWVKQKPEQGLEWIGHFSPGNTDIKYNDKFKGKATLTVDRSSSTAYMQLNSLTSEDSAVYFCKTSTFFFDYWGQGTTLTVSS
VL: ELVMTQSPSSLTVTAGEKVTMICKSSQSLLNSGDQKNYLTWYQQKPGQPPKLLIFWASTRESGVPDRFTGSGSGTDFTLTISSVQAEDLAVYYCQNDYSYPLTFGAGTKLELK
notes: also called 5E5 mAb; mAb 5E5
Does B1 bind?
Result: binds
